From the supplement of paper PMC10567573

Experiment: protein stability index of a GFP-peptide fusion (GPS, HEK-293T) (PSI 1-6); higher = more stable
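Also: lentivirally expressed fusions sorted by FACS into six bins by GFP to DsRed ratio, PSI derived from sequencing read proportions per bin multiplied by bin number.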

B1: FEM1A WT (peptide)
chain: PCCSSSPEEPLNGESYESCCPTSR
protein stability index (parent: IOH5115_46, c terminus: a fixed tail appended): 3.71

B2: MLH1 WT (peptide)
chain: YNIATRRKALKNPSEEYGKILEVV
protein stability index (parent: IOH3190_27, c terminus: a fixed tail appended): 2.51

B3: CIB1 WT (peptide)
chain: DLSRLVNCLTGEGEDTRLSASEMK
protein stability index (parent: IOH3143_22, c terminus: a fixed tail appended): 3.05

B4: FEM1A WT (peptide)
chain: NIVEYLIQEQPGQEQVAGGEAQPG
protein stability index (parent: IOH5115_39, c terminus: a fixed tail appended): 4.27

B5: FAM50A WT (peptide)
chain: HIFPASRWEPYDPEKKWDKYTIR
protein stability index (parent: IOH4655_56, c terminus: native): 2.29

B6: ZNF207 WT (peptide)
chain: CHICHKKLYTGPGLAIHCMQVHKE
protein stability index (parent: IOH3584_7, c terminus: a fixed tail appended): 3.29

B7: VTI1B WT (peptide)
chain: NKLLLSIIILLELAILGGLVYYKF
protein stability index (parent: IOH5143_35, c terminus: a fixed tail appended): 2.46

B8: TSN WT (peptide)
chain: FLAAEQDIREEIRKVVQSLEQTAR
protein stability index (parent: IOH3571_3, c terminus: a fixed tail appended): 1.8

B9: CLK3 WT (peptide)
chain: FGEDYYGPSRSRHRRRSRERGPYR
protein stability index (parent: IOH4008_14, c terminus: a fixed tail appended): 2.64

B10: ZNF207 WT (peptide)
chain: FQPQPVQPQQGYIPPMAQPGLPPV
protein stability index (parent: IOH3584_22, c terminus: a fixed tail appended): 3.18

B11: CDC34 WT (peptide)
chain: GGYFKARLKFPIDYPYSPPAFRFL
protein stability index (parent: IOH1870_10, c terminus: a fixed tail appended): 2.41

B12: TMEM106C WT (peptide)
chain: YVTTNVSLIPPRSEQLVNFTGKAE
protein stability index (parent: IOH3247_29, c terminus: a fixed tail appended): 1.77

B13: CCND1 WT (peptide)
chain: PEAEENKQIIRKHAQTFVALCATD
protein stability index (parent: IOH1962_29, c terminus: a fixed tail appended): 2.89

B14: FAM50A WT (peptide)
chain: KALEILRKDFSELRSAGVEQLMYI
protein stability index (parent: IOH4655_39, c terminus: a fixed tail appended): 2.56

B15: SEC22B WT (peptide)
chain: AKQLFRKLNEQSPTRCTLEAGAMT
protein stability index (parent: IOH3957_7, c terminus: a fixed tail appended): 2.07

B16: KRT18 WT (peptide)
chain: RVRSLETENRRLESKIREHLEKKG
protein stability index (parent: IOH2946_17, c terminus: a fixed tail appended): 4.39

B17: CASP6 WT (peptide)
chain: TCADRDNLTRRFSDLGFEVKCFND
protein stability index (parent: IOH3453_12, c terminus: a fixed tail appended): 3.21

B18: ZNF207 WT (peptide)
chain: YQGGPPRPPMGMRPPVMSQGGRY
protein stability index (parent: IOH3584_75, c terminus: native): 1.94

B19: NCK2 WT (peptide)
chain: YVERKNSLKKGSLVKNLKDTLGLG
protein stability index (parent: IOH4659_10, c terminus: a fixed tail appended): 2.21

B20: TSN WT (peptide)
chain: AFVVYLETETLVTREAVTEILGIE
protein stability index (parent: IOH3571_18, c terminus: a fixed tail appended): 2.25

B21: CDKN1A WT (peptide)
chain: GRKRRQTSMTDFYHSKRRLIFSKR
protein stability index (parent: IOH5068_24, c terminus: a fixed tail appended): 3.14

B22: TSN WT (peptide)
chain: FVELQGFLAAEQDIREEIRKVVQS
protein stability index (parent: IOH3571_2, c terminus: a fixed tail appended): 2.08

B23: MNAT1 WT (peptide)
chain: SLREYNDFLEEVEEIVFNLTNNVD
protein stability index (parent: IOH3100_16, c terminus: a fixed tail appended): 2

B24: ELF3 WT (peptide)
chain: RLVYKFGKNSSGWKEEEVLQSRN
protein stability index (parent: IOH4879_62, c terminus: native): 2.04

B25: TMEM106C WT (peptide)
chain: FTGRDSITCLTCQGTGYIPTEQVN
protein stability index (parent: IOH3247_8, c terminus: a fixed tail appended): 1.83

B26: MCOLN1 WT (peptide)
chain: EEEDLRRRLKYFFMSPCDKFRAKG
protein stability index (parent: IOH4733_7, c terminus: a fixed tail appended): 2.28

B27: ELF3 WT (peptide)
chain: LSKEYWDCLEGKKSKHAPRGTHLW
protein stability index (parent: IOH4879_43, c terminus: a fixed tail appended): 2.74

B28: TMEM106C WT (peptide)
chain: SEQLVNFTGKAEMGGPFSYVYFFC
protein stability index (parent: IOH3247_31, c terminus: a fixed tail appended): 2.53

B29: PDLIM7 WT (peptide)
chain: AAGGVPGGGSNNGKTPVCHQCHKV
protein stability index (parent: IOH4706_45, c terminus: a fixed tail appended): 2.61

B30: KRT18 WT (peptide)
chain: KSQDLAKIMADIRAQYDELARKNR
protein stability index (parent: IOH2946_41, c terminus: a fixed tail appended): 2.6

B31: EMD WT (peptide)
chain: YQSKGYNDDYYEESYFTTRTYGEP
protein stability index (parent: IOH4676_15, c terminus: a fixed tail appended): 2.23

B32: NCK2 WT (peptide)
chain: YTGPSSSGRFAGREWYYGNVTRHQ
protein stability index (parent: IOH4659_46, c terminus: a fixed tail appended): 1.78

B33: ZNF207 WT (peptide)
chain: FPSAGQAQAAVQGPVGTDFKPLNS
protein stability index (parent: IOH3584_46, c terminus: a fixed tail appended): 3.51

B34: CDKN1A WT (peptide)
chain: RRQTSMTDFYHSKRRLIFSKRKP
protein stability index (parent: IOH5068_25, c terminus: native): 2.54

B35: CCND1 WT (peptide)
chain: IRRAYPDANLLNDRVLRAMLKAEE
protein stability index (parent: IOH1962_3, c terminus: a fixed tail appended): 2.62

B36: FAM50A WT (peptide)
chain: KKREKQREQMEQMKQRIAEENIMK
protein stability index (parent: IOH4655_4, c terminus: a fixed tail appended): 4.67

B37: PHTF1 WT (peptide)
chain: SRHLNSQVKKTTTRWCHIVRDSDS
protein stability index (parent: IOH4271_53, c terminus: a fixed tail appended): 2.05

B38: SEC22B WT (peptide)
chain: FPKKLAFAYLEDLHSEFDEQHGKK
protein stability index (parent: IOH3957_14, c terminus: a fixed tail appended): 2.61

B39: ZNF24 WT (peptide)
chain: THTKEQILELVVLEQFVAILPKEL
protein stability index (parent: IOH4871_15, c terminus: a fixed tail appended): 2.8

B40: PHTF1 WT (peptide)
chain: RVKLISNKGTETDNDPSCVHPIIK
protein stability index (parent: IOH4271_36, c terminus: a fixed tail appended): 4.06

B41: KRT18 WT (peptide)
chain: RAQYDELARKNREELDKYWSQQIE
protein stability index (parent: IOH2946_43, c terminus: a fixed tail appended): 3.04

B42: UFD1L WT (peptide)
chain: EAGGRFVAFSGEGQSLRKKGRKP
protein stability index (parent: IOH4744_50, c terminus: native): 1.91

B43: MNAT1 WT (peptide)
chain: LAPIHKLEEALYEYQPLQIETYGP
protein stability index (parent: IOH3100_40, c terminus: a fixed tail appended): 1.96

B44: MNAT1 WT (peptide)
chain: LEEALYEYQPLQIETYGPHVPELE
protein stability index (parent: IOH3100_41, c terminus: a fixed tail appended): 2.7

B45: RAB40B WT (peptide)
chain: YSLTTSSTHKRSSLRKVKLVRPPQ
protein stability index (parent: IOH1937_41, c terminus: a fixed tail appended): 2.95

B46: KRT18 WT (peptide)
chain: PQVRDWSHYFKIIEDLRAQIFANT
protein stability index (parent: IOH2946_21, c terminus: a fixed tail appended): 2.07

B47: PI4K2A WT (peptide)
chain: FVKDPQGRIIAVFKPKNEEPYGHL
protein stability index (parent: IOH5080_24, c terminus: a fixed tail appended): 1.76

B48: ZNF24 WT (peptide)
chain: YGETCFPKGRFERKRNPSRKKQHI
protein stability index (parent: IOH4871_39, c terminus: a fixed tail appended): 2.65

B49: VTI1B WT (peptide)
chain: ANETLAEMEEELRYAPLSFRNPMM
protein stability index (parent: IOH5143_10, c terminus: a fixed tail appended): 1.94

B50: TMEM106C WT (peptide)
chain: TVPEILVHNIVIFMRTSVKISYIG
protein stability index (parent: IOH3247_35, c terminus: a fixed tail appended): 3.44

B51: FAM164A WT (peptide)
chain: YDPDYIQCPYCQRRFNENAADRHI
protein stability index (parent: IOH3371_20, c terminus: a fixed tail appended): 4.12

B52: FLOT1 WT (peptide)
chain: QMAKKAEAFQLYQEAAQLDMLLEK
protein stability index (parent: IOH4826_57, c terminus: a fixed tail appended): 1.75

B53: TPD52L2 WT (peptide)
chain: EAEEEELRAELTKVEEEIVTLRQV
protein stability index (parent: IOH3163_8, c terminus: a fixed tail appended): 4.06
